Results from doi:10.1101/2025.02.06.636808, “DNA Binding by the Escherichia coli MinC–MinD Complex Requires the MinC Interdomain Linker” (bioRxiv, 2025).

T1: MinD (E. coli) (E. coli, UniProt P0AEZ3 1-270)
T1 construct: source: E. coli Rosetta(DE3)pLysS, purified (nickel IMAC, desalting); His tag removed with thrombin; not shown: T7 tag, N-terminal, kept
T1 sequence (looked up): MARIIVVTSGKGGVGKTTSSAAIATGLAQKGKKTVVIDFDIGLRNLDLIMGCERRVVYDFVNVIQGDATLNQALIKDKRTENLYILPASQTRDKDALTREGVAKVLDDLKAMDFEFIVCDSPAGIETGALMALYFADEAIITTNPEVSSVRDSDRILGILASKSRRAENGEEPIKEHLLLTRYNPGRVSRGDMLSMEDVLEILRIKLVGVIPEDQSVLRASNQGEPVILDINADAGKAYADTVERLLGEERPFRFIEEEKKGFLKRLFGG


Columns and labels:
MinD (E. coli) [1] = target: T1, MinD (E. coli); assay: co-sedimentation; liposome co-sedimentation without DNA, competition: MinD 1 uM, MinC 1 uM, increasing MinE, 160 ug/mL liposomes, 1 mM ATP, ATPase buffer; SDS-PAGE, Coomassie; conditions: both partners purified
MinD (E. coli) [2] = target: T1, MinD (E. coli); assay: co-sedimentation; liposome co-sedimentation without DNA: MinD 2 uM, MinC 2 uM, 0.5 mg/mL liposomes, 1 mM ATP, ATPase buffer (25 mM Tris-HCl pH 7.5, 50 mM KCl, 5 mM MgCl2, 5% glycerol); SDS-PAGE, Coomassie; conditions: both partners purified

binding result (MinD (E. coli) [1]) | binding result (MinD (E. coli) [2]) | Binder
binds | – | MinC-2xAGGSG linker mutant (natural protein, E. coli, MinC, E. coli MG1655, N-terminal part before the linker, residues 1-101; linker that replaces residues 102-120 of MinC: AGGSG repeated twice; MinC, E. coli MG1655, C-terminal part after the linker, residues 121-231; source: E. coli Rosetta(DE3)pLysS, purified (nickel IMAC, desalting); His tag removed with thrombin; not shown: T7 tag, N-terminal, kept) MSNTPIELKGSSFTLSVVHLHEAEPKVIHQALEDKIAQAPAFLKHAPVVLNVSALEDPVNWSAMHKAVSATGLRVIGVSGCKDAQLKAEIEKMGLPILTEGAGGSGAGGSGPVTKTRLIDTPVRSGQRIYAPQCDLIVTSHVSAGAELIADGNIHVYGMMRGRALAGASGDRETQIFCTNLMAELVSIAGEYWLSDQIPAEFYGKAARLQLVENALTVQPLN
binds | – | MinC-3xAGGSG linker mutant (natural protein, E. coli, MinC, E. coli MG1655, N-terminal part before the linker, residues 1-101; linker that replaces residues 102-120 of MinC: AGGSG repeated three times; MinC, E. coli MG1655, C-terminal part after the linker, residues 121-231; source: E. coli Rosetta(DE3)pLysS, purified (nickel IMAC, desalting); His tag removed with thrombin; not shown: T7 tag, N-terminal, kept) MSNTPIELKGSSFTLSVVHLHEAEPKVIHQALEDKIAQAPAFLKHAPVVLNVSALEDPVNWSAMHKAVSATGLRVIGVSGCKDAQLKAEIEKMGLPILTEGAGGSGAGGSGAGGSGPVTKTRLIDTPVRSGQRIYAPQCDLIVTSHVSAGAELIADGNIHVYGMMRGRALAGASGDRETQIFCTNLMAELVSIAGEYWLSDQIPAEFYGKAARLQLVENALTVQPLN
binds | – | MinE (E. coli) (natural protein, UniProt P0A734 1-88, looked up, a T7 tag from pET28a may be left; source: E. coli Rosetta(DE3)pLysS, purified (nickel IMAC, desalting)) MALLDFFLSRKKNTANIAKERLQIIVAERRRSDAEPHYLPQLRKDILEVICKYVQIDPEMVTVQLEQKDGDISILELNVTLPEAEELK
– | binds | MinC19RL linker mutant (natural protein, E. coli, MinC, E. coli MG1655, N-terminal part before the linker, residues 1-101; linker that replaces residues 102-120 of MinC: as the 4x linker but without the last glycine, 19 residues; MinC, E. coli MG1655, C-terminal part after the linker, residues 121-231; source: E. coli Rosetta(DE3)pLysS, purified (nickel IMAC, desalting); His tag removed with thrombin; not shown: T7 tag, N-terminal, kept) MSNTPIELKGSSFTLSVVHLHEAEPKVIHQALEDKIAQAPAFLKHAPVVLNVSALEDPVNWSAMHKAVSATGLRVIGVSGCKDAQLKAEIEKMGLPILTEGAGGSGAGGSGAGGSGAGGSPVTKTRLIDTPVRSGQRIYAPQCDLIVTSHVSAGAELIADGNIHVYGMMRGRALAGASGDRETQIFCTNLMAELVSIAGEYWLSDQIPAEFYGKAARLQLVENALTVQPLN
– | binds | MinC-GS linker mutant (natural protein, E. coli, MinC, E. coli MG1655, N-terminal part before the linker, residues 1-101; linker that replaces residues 102-120 of MinC; MinC, E. coli MG1655, C-terminal part after the linker, residues 121-231; Made from pET28a-MinC by amplifying the whole plasmid except residues 102-120; source: E. coli Rosetta(DE3)pLysS, purified (nickel IMAC, desalting); His tag removed with thrombin; not shown: T7 tag, …) MSNTPIELKGSSFTLSVVHLHEAEPKVIHQALEDKIAQAPAFLKHAPVVLNVSALEDPVNWSAMHKAVSATGLRVIGVSGCKDAQLKAEIEKMGLPILTEGGSPVTKTRLIDTPVRSGQRIYAPQCDLIVTSHVSAGAELIADGNIHVYGMMRGRALAGASGDRETQIFCTNLMAELVSIAGEYWLSDQIPAEFYGKAARLQLVENALTVQPLN
binds | – | MinC-4xAGGSG linker mutant (natural protein, E. coli, MinC, E. coli MG1655, N-terminal part before the linker, residues 1-101; linker that replaces residues 102-120 of MinC: AGGSG repeated four times; MinC, E. coli MG1655, C-terminal part after the linker, residues 121-231; source: E. coli Rosetta(DE3)pLysS, purified (nickel IMAC, desalting); His tag removed with thrombin; not shown: T7 tag, N-terminal, kept) MSNTPIELKGSSFTLSVVHLHEAEPKVIHQALEDKIAQAPAFLKHAPVVLNVSALEDPVNWSAMHKAVSATGLRVIGVSGCKDAQLKAEIEKMGLPILTEGAGGSGAGGSGAGGSGAGGSGPVTKTRLIDTPVRSGQRIYAPQCDLIVTSHVSAGAELIADGNIHVYGMMRGRALAGASGDRETQIFCTNLMAELVSIAGEYWLSDQIPAEFYGKAARLQLVENALTVQPLN
binds | – | MinC-1xAGGSG linker mutant (natural protein, E. coli, MinC, E. coli MG1655, N-terminal part before the linker, residues 1-101; linker that replaces residues 102-120 of MinC; MinC, E. coli MG1655, C-terminal part after the linker, residues 121-231; source: E. coli Rosetta(DE3)pLysS, purified (nickel IMAC, desalting); His tag removed with thrombin; not shown: T7 tag, N-terminal, kept) MSNTPIELKGSSFTLSVVHLHEAEPKVIHQALEDKIAQAPAFLKHAPVVLNVSALEDPVNWSAMHKAVSATGLRVIGVSGCKDAQLKAEIEKMGLPILTEGAGGSGPVTKTRLIDTPVRSGQRIYAPQCDLIVTSHVSAGAELIADGNIHVYGMMRGRALAGASGDRETQIFCTNLMAELVSIAGEYWLSDQIPAEFYGKAARLQLVENALTVQPLN
